Here are results for one molecule from patent publication US9228015B2, “Nogo receptor antagonists and methods of increasing neurite outgrowth” (Biogen Idec MA Inc., priority 2006, dated 2016).

“Also recorded” adds a separate entry of the source.

Test [1] concerns the target T1, Nogo66 binding to sNogoR344-Fc (rat Nogo receptor-1 residues 26-344) (Rattus norvegicus, UniProt Q99M75, A303T/C287S/C43R/E284G/T53A).
T1 construct: amino acid residues 26-344 of rat Nogo receptor-1; made in house; CHO (DG44) is described only for sNogoR310-Fc
T1 sequence (Q99M75 26-344 C43R/T53A/E284G/C287S/A303T): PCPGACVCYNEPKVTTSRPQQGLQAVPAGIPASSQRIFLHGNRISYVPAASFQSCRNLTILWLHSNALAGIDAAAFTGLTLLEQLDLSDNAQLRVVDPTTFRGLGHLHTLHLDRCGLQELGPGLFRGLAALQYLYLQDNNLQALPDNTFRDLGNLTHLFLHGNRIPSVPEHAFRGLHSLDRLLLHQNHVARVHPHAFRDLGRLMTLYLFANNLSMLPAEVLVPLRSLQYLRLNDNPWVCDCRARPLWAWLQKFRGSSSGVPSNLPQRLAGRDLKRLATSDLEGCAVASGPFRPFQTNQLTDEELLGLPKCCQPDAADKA
Nature of the test: SPA bead assay: 125I-Nogo66 binding to immobilized sNogoR344-Fc, inhibition by mAb. As to conditions: 125I-Nogo66 binding to sNogoR344-Fc. The method, then:
(§1) 0.5 μg of a soluble Nogo receptor-1 fusion protein comprising amino acid residues 26-344 of rat Nogo receptor-1 and the hinge and Fc region of the rat IgG1 molecule (sNogoR344-Fc) produced as described below was immobilized on […] of protein-A- or wheatgerm agglutinin-conjugated SPA beads (Amersham Pharmacia Biotech) for 2 hours at 25° C. SPA beads coupled with Fc-sNogoR-1, anti-Nogo receptor-1 mAb and 1 μl ^125I-Nogo66 (Amersham, 2000 Ci/mmol, 1 nM) in […] of the HEPES-buffered incubation medium (10 mM HEPES, pH 7.4, 0.1% bovine serum albumin, 0.1% ovalbumin, 2 mM MgCl2, 2 mM CaCl2 and protease inhibitors) was added to each sample well. After 16 hours, radioactivity was measured in quadruplicate samples using a TopCount® (Packard). IC50 values were calculated from a curve-fit analysis (FIG. 3) (PRISM, GraphPad Software, NJ). In some experiments, we also used AP-ligand conjugates (e.g. AP-Nogo66) and detected binding by monitoring alkaline phosphatase activity. We also assayed the ability of the mAbs to block binding of the ligands MAG-Fc and AP-OM-gp to Nogo receptor-1.

For a further test, the target named is T2, OM-gp + sNogoR344-Fc (Rattus norvegicus, UniProt Q99M75, A303T/C287S/C43R/E284G/T53A).
T2 construct: amino acid residues 26-344 of rat Nogo receptor-1; made in house; CHO (DG44) is described only for sNogoR310-Fc
T2 sequence (Q99M75 26-344 C43R/T53A/E284G/C287S/A303T): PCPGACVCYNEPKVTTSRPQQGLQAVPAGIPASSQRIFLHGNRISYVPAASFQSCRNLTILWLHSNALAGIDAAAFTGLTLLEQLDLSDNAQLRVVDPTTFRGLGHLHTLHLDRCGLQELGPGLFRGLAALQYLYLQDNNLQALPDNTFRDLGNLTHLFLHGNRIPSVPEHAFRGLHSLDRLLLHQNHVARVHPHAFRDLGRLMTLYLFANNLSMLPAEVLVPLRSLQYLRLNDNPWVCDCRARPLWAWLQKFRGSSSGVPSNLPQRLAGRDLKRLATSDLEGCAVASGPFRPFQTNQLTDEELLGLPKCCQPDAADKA
Nature of the test: ELISA: inhibition of OM-gp binding to sNogoR344-Fc. Here is the method: as §1
Monoclonal antibodies 7E11, 5B10, 1H2, 3G5 and 2F7 all inhibited binding of Nogo66, MAG and OM-gp to sNogoR344-Fc. The calculated IC50 for Nogo66 for 7E11 and 1H2 were 400 nM and 60 nM, respectively. The data from ELISAs monitoring mAb-mediated inhibition of binding of the three ligands to Nogo receptor-1 are summarized in Table 6.
The percent displacement is shown at 30 nM antibody and the EC50 for certain mAbs determined from curve-fit analysis as described. “-” indicates no detectable activity and “ND” indicates not determined.
We also performed ELISA binding assays using the Fab-phage 141)5.
For orientation: An ELISA detects its analyte on a solid surface through an enzyme-linked reagent.

For the next test, the target named is T3, rat NgR1 (Rattus norvegicus, UniProt Q99M75).
T3 sequence (Q99M75 27-310): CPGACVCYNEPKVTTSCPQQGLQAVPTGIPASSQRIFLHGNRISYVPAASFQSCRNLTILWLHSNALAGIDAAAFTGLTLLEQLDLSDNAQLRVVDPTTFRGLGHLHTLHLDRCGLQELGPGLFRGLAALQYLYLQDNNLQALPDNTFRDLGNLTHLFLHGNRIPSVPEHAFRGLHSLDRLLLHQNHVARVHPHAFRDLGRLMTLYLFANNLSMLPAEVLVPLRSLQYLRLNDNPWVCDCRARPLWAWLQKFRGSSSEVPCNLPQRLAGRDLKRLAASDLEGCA
The test is described as follows: Antibody binding specificity: rat Nogo receptor-1.

The target in another test is T4, mouse NgR1 (Mus musculus, UniProt Q99PI8).
T4 sequence (Q99PI8 27-447): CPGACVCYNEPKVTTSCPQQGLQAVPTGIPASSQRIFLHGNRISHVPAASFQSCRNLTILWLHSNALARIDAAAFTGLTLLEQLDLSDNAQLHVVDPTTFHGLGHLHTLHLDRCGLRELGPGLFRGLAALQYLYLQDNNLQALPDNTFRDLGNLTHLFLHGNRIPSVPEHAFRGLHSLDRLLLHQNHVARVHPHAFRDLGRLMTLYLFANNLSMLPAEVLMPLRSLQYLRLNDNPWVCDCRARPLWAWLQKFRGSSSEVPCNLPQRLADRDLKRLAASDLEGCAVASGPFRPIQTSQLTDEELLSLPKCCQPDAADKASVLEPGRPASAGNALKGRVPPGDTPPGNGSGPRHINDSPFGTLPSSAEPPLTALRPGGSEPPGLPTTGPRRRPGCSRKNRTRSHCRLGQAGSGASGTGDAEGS
The test is described as follows: Antibody binding specificity: mouse Nogo receptor-1.

In test [2] the test system is DRG neurons, myelin-mediated inhibition of neurite outgrowth. The test is described as follows: Neurite outgrowth assay, P3-4 rat DRG neurons on CNS myelin (Example 5). Particulars: mAb added after plating. It is filed as cell-based. The method, then:
To test the ability of the monoclonal and Fab-phage antibodies produced above to lessen the inhibitory effect of CNS myelin on neurons, Lab-Tek® culture slides (4 wells) were coated with 0.1 mg/ml poly-D-lysine (Sigma®). CNS myelin or PBS was spotted as 3 μl drops. Fluorescent microspheres (Polysciences) were added to the myelin/PBS to allow later identification of the drops (Grandpre et al., Nature 403:439-444 (2000)). Lab-Tek® slides were then rinsed and coated with 10 μg/ml laminin (Gibco™). Dorsal root ganglions (DRG's) from P3-4 Sprague Dawley rat pups were dissociated with 1 mg/ml collagenase type 1 (Worthington), triturated with fire-polished Pasteur pipettes pre-plated to enrich in neuronal cells and finally plated at 23,000 cells/well on the pre-coated Lab-Tek® culture slides. The culture medium was F12 containing 5% heat inactivated donor horse serum, 5% heat inactivated fetal bovine serum and 50 ng/ml mNGF and incubated at 37° C. and 5% CO2 for 6 hours. Fifteen […] of mAb 7E11 was added immediately after plating.
Slides were fixed for 20 minutes with 4% paraformaldehyde containing 20% sucrose and stained for the neuronal marker anti beta-III-tubulin (Covance TUJ1) diluted 1:500. […] 5× digital images were acquired with OpenLab™ software and analysed by using the MetaMorph® software for quantification of neurite outgrowth.

B1: 7E11: murine monoclonal anti-Nogo receptor-1 antibody, immunogen rat Nogo receptor-1 residues 110-125, IgG1 kappa, ATCC PTA-4587 (antibody, V domains shown)
VH: VQLQESGAELVMPGASVKMSCKASGYTFTDYWMHWVKQRPGQGLEWIGAIDPSDSYSSYNQNFKGKATLTVDGSSSTAYMQLSSLTSEDSAVYYCARRITEAGAWFAYWGQGTTVT
VL: MKLPVRLLVLMFWIPASSSDVVMTQTPLSLPVSLGDQASISCRSSQSLVHSNGNTYLHWYLQKPGQSPKLLIYKVSNRFSGVPDRFSGSGSGTDFTLKISRVDAEDLGVYFCSQSTHVPFTFGGGTKLEIKRADAAPTVSISHH
modifications: 7E11 heavy chain; 7E11 light chain
notes: murine monoclonal anti-Nogo receptor-1 antibody, immunogen rat Nogo receptor-1 residues 110-125, IgG1 kappa, ATCC PTA-4587
Usually IC50 stands for the concentration that gives 50% inhibition. Higher therefore signals lower potency. What is called EC50 is the concentration needed to bring the measured effect to its halfway point. B1: the IC50 in test [1] is 400 nM. Further, in the test with OM-gp + sNogoR344-Fc, the “inhibition of binding of OM-gp to sNogoR344-Fc” value was “inhibited”. For the same molecule, in the test with OM-gp + sNogoR344-Fc (curve-fit analysis), the EC50 stood at 150 nM. Besides, the “binding to rat Nogo receptor-1” value with rat NgR1 is on record as “bound; also recorded: binds well”. Further, the “binding to mouse Nogo receptor-1” value with mouse NgR1 was “not and poorly”. In test [2], the “protection of DRG neurons from myelin-mediated inhibition of neurite outgrowth” value is listed as “protected”.
